Measurements as given in patent US20210388087A1 (Chugai, published 2021).

T1: Human CD3eg linker (human)
T1 construct: single-chain construct; also called recombinant human CD3
T1 chain: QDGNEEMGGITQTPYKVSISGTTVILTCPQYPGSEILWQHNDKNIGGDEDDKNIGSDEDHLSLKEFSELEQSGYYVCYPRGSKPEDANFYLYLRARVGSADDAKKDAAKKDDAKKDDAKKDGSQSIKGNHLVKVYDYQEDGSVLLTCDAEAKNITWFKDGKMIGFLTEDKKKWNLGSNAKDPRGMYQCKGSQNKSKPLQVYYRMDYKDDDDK


Target: T1, Human CD3eg linker
Assay: SPR, vs unmutated H183/L072

Binder	fold change of affinity
dBBDu183H F100gN/dBBDu072L (antibody, name in Kabat numbering, V domains shown) VH: QVQLVESGGGLVQPGRSLRLSCAASGFTFSNAWMHWVRQAPGKGLEWVAQIKDKGNAYAAYYAPSVKGRFTISRDDSKNSIYLQMNSLKTEDTAVYYCHYVHYASASTVLPANGVDAWGQGTTVTVSS VL: DIVMTQSPLSLPVTPGEPASISCQASQELVHMNRNTYLHWYQQKPGQAPRLLIYKVSNRFPGVPDRFSGSGSGTDFTLKISRVEAEDVGVYYCAQGTSVPFTFGQGTKLEIK	0.9 fold
dBBDu183H F100gT/dBBDu072L (antibody, name in Kabat numbering, V domains shown) VH: QVQLVESGGGLVQPGRSLRLSCAASGFTFSNAWMHWVRQAPGKGLEWVAQIKDKGNAYAAYYAPSVKGRFTISRDDSKNSIYLQMNSLKTEDTAVYYCHYVHYASASTVLPATGVDAWGQGTTVTVSS VL: DIVMTQSPLSLPVTPGEPASISCQASQELVHMNRNTYLHWYQQKPGQAPRLLIYKVSNRFPGVPDRFSGSGSGTDFTLKISRVEAEDVGVYYCAQGTSVPFTFGQGTKLEIK	1.3 fold
dBBDu183H F100gR/dBBDu072L (antibody, name in Kabat numbering, V domains shown) VH: QVQLVESGGGLVQPGRSLRLSCAASGFTFSNAWMHWVRQAPGKGLEWVAQIKDKGNAYAAYYAPSVKGRFTISRDDSKNSIYLQMNSLKTEDTAVYYCHYVHYASASTVLPARGVDAWGQGTTVTVSS VL: DIVMTQSPLSLPVTPGEPASISCQASQELVHMNRNTYLHWYQQKPGQAPRLLIYKVSNRFPGVPDRFSGSGSGTDFTLKISRVEAEDVGVYYCAQGTSVPFTFGQGTKLEIK	3.4 fold
dBBDu183H F100gV/dBBDu072L (antibody, name in Kabat numbering, V domains shown) VH: QVQLVESGGGLVQPGRSLRLSCAASGFTFSNAWMHWVRQAPGKGLEWVAQIKDKGNAYAAYYAPSVKGRFTISRDDSKNSIYLQMNSLKTEDTAVYYCHYVHYASASTVLPAVGVDAWGQGTTVTVSS VL: DIVMTQSPLSLPVTPGEPASISCQASQELVHMNRNTYLHWYQQKPGQAPRLLIYKVSNRFPGVPDRFSGSGSGTDFTLKISRVEAEDVGVYYCAQGTSVPFTFGQGTKLEIK	1.2 fold
dBBDu183H F100gS/dBBDu072L (antibody, name in Kabat numbering, V domains shown) VH: QVQLVESGGGLVQPGRSLRLSCAASGFTFSNAWMHWVRQAPGKGLEWVAQIKDKGNAYAAYYAPSVKGRFTISRDDSKNSIYLQMNSLKTEDTAVYYCHYVHYASASTVLPASGVDAWGQGTTVTVSS VL: DIVMTQSPLSLPVTPGEPASISCQASQELVHMNRNTYLHWYQQKPGQAPRLLIYKVSNRFPGVPDRFSGSGSGTDFTLKISRVEAEDVGVYYCAQGTSVPFTFGQGTKLEIK	1.4 fold
dBBDu183H F100gW/dBBDu072L (antibody, name in Kabat numbering, V domains shown) VH: QVQLVESGGGLVQPGRSLRLSCAASGFTFSNAWMHWVRQAPGKGLEWVAQIKDKGNAYAAYYAPSVKGRFTISRDDSKNSIYLQMNSLKTEDTAVYYCHYVHYASASTVLPAWGVDAWGQGTTVTVSS VL: DIVMTQSPLSLPVTPGEPASISCQASQELVHMNRNTYLHWYQQKPGQAPRLLIYKVSNRFPGVPDRFSGSGSGTDFTLKISRVEAEDVGVYYCAQGTSVPFTFGQGTKLEIK	0.9 fold
dBBDu183H F100gQ/dBBDu072L (antibody, name in Kabat numbering, V domains shown) VH: QVQLVESGGGLVQPGRSLRLSCAASGFTFSNAWMHWVRQAPGKGLEWVAQIKDKGNAYAAYYAPSVKGRFTISRDDSKNSIYLQMNSLKTEDTAVYYCHYVHYASASTVLPAQGVDAWGQGTTVTVSS VL: DIVMTQSPLSLPVTPGEPASISCQASQELVHMNRNTYLHWYQQKPGQAPRLLIYKVSNRFPGVPDRFSGSGSGTDFTLKISRVEAEDVGVYYCAQGTSVPFTFGQGTKLEIK	1.3 fold
dBBDu183H F100gY/dBBDu072L (antibody, name in Kabat numbering, V domains shown) VH: QVQLVESGGGLVQPGRSLRLSCAASGFTFSNAWMHWVRQAPGKGLEWVAQIKDKGNAYAAYYAPSVKGRFTISRDDSKNSIYLQMNSLKTEDTAVYYCHYVHYASASTVLPAYGVDAWGQGTTVTVSS VL: DIVMTQSPLSLPVTPGEPASISCQASQELVHMNRNTYLHWYQQKPGQAPRLLIYKVSNRFPGVPDRFSGSGSGTDFTLKISRVEAEDVGVYYCAQGTSVPFTFGQGTKLEIK	1.2 fold
